B1: ikzf1-006: Ikaros variant lacking exon 7, overexpressed as fused Ikzf1:EGFP protein in zebrafish embryos (nucleic acid)
DNA: ATGGAGACTGAGGAGGCACAGGAAATGTCCCAGATAACAGGAAGAGACAGCCCGATGAATGCTAATGAAGGCGGAGAGGATCAAGATGAGGCCATGCCTGTTCCTGAAGACTTGTCAGCAAGCACTGGCCTCCAACACAACAATCGCACAGATAAACCACTGGCCTGTAATATAAAAGTTGAGGCTCGGAGTGACGAGGAAAACGGTCTGTCCTGTGAGATGAATGGAGAGGCAGAGGAATGTGCAGCTGAGGACTTGCGCATACTCGATGGCTCTGGGGCCAAAGTGAACGGCTCCCACGCAGGCCCCGACAGCAAGCCGGCCGCCTACCCCACAGCCGGGGGCATCCGCCTCCCCAACGGGAAGCTGAAGTGCGATATCTGTGGGATAGTTTGCATTGGGCCCAATGTGTTGATGGTTCACAAGCGAAGTCACACTGAAGAAAGAAAGTCAGTTTTGGAACAACAAAAAGGTGAAAGGCCATTCCAGTGCAATCAATGTGGTGCTTCATTCACTCAGAAGGGTAACCTGCTCCGACACATCAAACTTCACTCTGGCGAGAAACCTTTCAAATGTCACCTGTGCAACTATGCTTGCCGCCGCAGAGACGCTCTCACTGGACATCTGCGCACTCATTCGGTTGGAAAGCCCCATAAGTGTGCATATTGCGGACGCAGTTACAAGCAGCGGAGCTCACTGGAGGAACATAAGGAGAGATGTCACAACTACTTGCAGTGCATGGGCCTTCAGAACAGCATTTATACAGGAGAGAATCGTCTGTCAGAGCTATCTTTCGAGAGTGGCTCANGTGAGCTGATGCAGCCCCATGTGATTGATCAGGCCATCAACAGTGCAATTAGCTATCTGGGTGCAGAGTCCTTGCGGCCTCTGGTTCAGACCTCTCCTGGGTCCGCCGACATGGTGGTCAGCCCTCTATACAACCTGCACAAGTCACAAACAGCTGAAGGCAATGGTGTTTCTGCTAAAGACAGCGCCGCAGAGCACCTTCTCCTACTCTCTAAGTCCAAATCCGCCTCTGTTGACAAAGACGGTTCCCCCAGTCCCAGCGGGCAGGATTCCACTGACACTGAGAGCAACAACGAGGAGCGTTCGGCCGGGGTAAGCGGAACAGCAGCCACAGGTGGTCTCATCTACCTGACCAACCACATGGCTCCAGGTATGAGAAATGGAGGCCTGCCAGGGGTAAAGGAAGAACAACACCGGCAGTTTGAGGCTTTGCGAGCAGCAGGAATGGATTTGAGTATAGCGTCATCAGAAGGATTTAAGGTGCTAAGTGGAGATGGAGAAGAATTGAGGGCGTACCGCTGTATCCACTGCAGAGTTTTGTTCCTGGATCATGTCATGTACACCATCCACATGGGCTGTCATGGCTTCCGAGACCCCTTTGAGTGCAACCTATGCGGGTACCGCAGTCAGGACCGTTATGAGTTCTCATCGCACATCACACGTGGAGAGCACCGCATCTGA
modifications: fused to EGFP; nucleotide sequence of ikzf1-006 Ikaros variant; 808 n = A,T,C or G
notes: Ikaros variant lacking exon 7, overexpressed as fused Ikzf1:EGFP protein in zebrafish embryos
B2: ikzf1-007: Ikaros variant lacking exons 4 and 7, overexpressed as fused Ikzf1:EGFP protein in zebrafish embryos (nucleic acid)
DNA: ATGGAGACTGAGGAGGCACAGGAAATGTCCCAGATAACAGGAAGAGACAGCCCGATGAATGCTAATGAAGGCGGAGAGGATCAAGATGAGGCCATGCCTGTTCCTGAAGACTTGTCAGCAAGCACTGGCCTCCAACACAACAATCGCACAGATAAACCACTGGCCTGTAATATAAAAGTTGAGGCTCGGAGTGACGAGGAAAACGGTCTGTCCTGTGAGATGAATGGAGAGGCAGAGGAATGTGCAGCTGAGGACTTGCGCATACTCGATGGCTCTGGGGCCAAAGTGAACGGCTCCCACGCAGGCCCCGACAGCAAGCCGGCCGCCTACCCCACAGCCGGGGGCATCCGCCTCCCCAACGGGAAGCTGAAGTGCGATATCTGTGGGATAGTTTGCATTGGGCCCAATGTGTTGATGGTTCACAAGCGAAGTCACACTGGTGAAAGGCCATTCCAGTGCAATCAATGTGGTGCTTCATTCACTCAGAAGGGTAACCTGCTCCGACACATCAAACTTCACTCTGGCGAGAAACCTTTCAAATGTCACCTGTGCAACTATGCTTGCCGCCGCAGAGACGCTCTCACTGGACATCTGCGCACTCATTCGGTTGGAAAGCCCCATAAGTGTGCATATTGCGGACGCAGTTACAAGCAGCGGAGCTCACTGGAGGAACATAAGGAGAGATGTCACAACTACTTGCAGTGCATGGGCCTTCAGAACAGCATTTATACAGGAGAGAATCGTCTGTCAGAGCTATCTTTCGAGAGTGGCTCANGTGAGCTGATGCAGCCCCATGTGATTGATCAGGCCATCAACAGTGCAATTAGCTATCTGGGTGCAGAGTCCTTGCGGCCTCTGGTTCAGACCTCTCCTGGGTCCGCCGACATGGTGGTCAGCCCTCTATACAACCTGCACAAGTCACAAACAGCTGAAGGCAATGGTGTTTCTGCTAAAGACAGCGCCGCAGAGCACCTTCTCCTACTCTCTAAGTCCAAATCCGCCTCTGTTGACAAAGACGGTTCCCCCAGTCCCAGCGGGCAGGATTCCACTGACACTGAGAGCAACAACGAGGAGCGTTCGGCCGGGGTAAGCGGAACAGCAGCCACAGGTGGTCTCATCTACCTGACCAACCACATGGCTCCAGGTATGAGAAATGGAGGCCTGCCAGGGGTAAAGGAAGAACAACACCGGCAGTTTGAGGCTTTGCGAGCAGCAGGAATGGATTTGAGTATAGCGTCATCAGAAGGATTTAAGGTGCTAAGTGGAGATGGAGAAGAATTGAGGGCGTACCGCTGTATCCACTGCAGAGTTTTGTTCCTGGATCATGTCATGTACACCATCCACATGGGCTGTCATGGCTTCCGAGACCCCTTTGAGTGCAACCTATGCGGGTACCGCAGTCAGGACCGTTATGAGTTCTCATCGCACATCACACGTGGAGAGCACCGCATCTGA
modifications: fused to EGFP; nucleotide sequence of ikzf1-007 Ikaros variant; 775 n = A,T,C or G
notes: Ikaros variant lacking exons 4 and 7, overexpressed as fused Ikzf1:EGFP protein in zebrafish embryos

System: zebrafish embryos
Assay: Brain size, morphology and volume of zebrafish embryos (microscopy, MRI)
Format: in vivo
Conditions: for brain development: 22 hpf
Experimental: An aqueous solution of a 25-mer antisense morpholino oligonucleotide (AMO, Gene Tools, LLC) corresponding to the vicinity of the translation initiation codon in the cDNA sequence of the gene to be knocked down ([…] injection conditions were the same as those used for RNA) was injected into the embryos at the 1-cell stage. The sequence of AMO used for the CRBN gene knockdown is 5′-[…]-3′ (SEQ ID NO: 3). The sequence of AMO used for the Lhx2 gene knockdown is 5′-[…]-3′ (SEQ ID NO:4). The sequence of AMO used for the BRD7 gene knockdown is 5′-[…]-3′ (SEQ ID NO:1). The sequence of AMO used for the Ikaros gene knockdown is 5′-[…]-3′ (SEQ ID NO:2). […]
In order to examine the effect of antagonists of BRD7 on brain growth, BRD7 was knocked down or over-expressed in zebrafish embryos. Knockdown of BRD7 was performed by microinjection of antisense morpholino oligonucleotides (AMO). Overexpression of BRD7 was performed by microinjection of synthesized capped mRNA. AMO or capped mRNA was introduced into one-cell stage embryos by using a nitrogen gas-pressure microinjector IM 300 (Narishige). Conditions for microinjection were as follows: gas pressure was about 15 picosiemens; release period was about 30 to about 50 milliseconds per single injection; concentrations of AMOs and capped mRNA were 400 ng/μl and 250 ng/μl in nuclease-free water, respectively. Capped mRNAs were synthesized in vitro using the mMESSAGE mMachine® in vitro transcription kit (Ambion) from cDNAs cloned into pCS2+ plasmids.
The brains of the embryos were examined for morphology and volume by magnetic resonance imaging (MRI). FIGS. 9A, 9B, and 9C show microscopic pictures of the untreated, the BRD7-knockdown, and the BRD7-overexpressing zebrafish embryos, respectively. FIGS. 9D, 9E, and 9F show fluorescent microscopic pictures of the brain regions of the untreated, the BRD7-knockdown, and the BRD7-overexpressing zebrafish embryos, respectively. As shown in these figures, the BRD7-knockdown zebrafish embryos had bigger heads than the untreated embryos. […] The volume of the whole brain of the BRD7-knockdown fish was much bigger than that of the untreated fish, while for the BRD7-overexpressing fish, the brain volume was smaller.
In order to examine the effect of antagonists of Ikaros on brain growth, Ikaros was knocked down or over-expressed in zebrafish embryos. Knockdown of Ikaros was performed by microinjection of antisense morpholino oligonucleotides (AMO). Overexpression of Ikaros was performed by injection of synthesized capped mRNA. AMO or capped mRNA was introduced into one-cell stage embryos by using a nitrogen gas-pressure microinjector IM 300 (Narishige). Conditions for microinjection were as follows: gas pressure was about 15 picosiemens; release period was about 30 to about 50 milliseconds per single injection; concentrations of AMOs and capped mRNA were 400 ng/μl and 250 ng/μl in nuclease-free water, respectively. Capped mRNAs were synthesized in vitro using the mMESSAGE mMachine® in vitro transcription kit (Ambion) from cDNAs cloned into pCS2+ plasmids.
The brains of the embryos were examined for morphology and volume by magnetic resonance imaging (MRI). FIGS. 15A, 15B, and 15C show microscopic pictures of untreated, Ikaros-knockdown, and Ikaros-overexpressing zebrafish embryos at 55 hpf, respectively. As shown in these figures, the Ikaros-knockdown fish had bigger heads than the untreated embryos. […] The volume of the whole brain of the Ikaros-knockdown fish was much bigger than that of the untreated fish, while for the Ikaros-overexpressing fish, the brain volume was smaller.

Molecule	brain size compared to the normal embryo (FIG. 1)	brain development
5′-TCTGCAACCCAAGATTTCCGTGAGA-3′ (all phosphorodiamidate morpholino (PMO)) [lhx2 gene-knockdown, 25-mer antisense morpholino oligonucleotide (AMO) used for the Lhx2 gene knockdown, reference compound]	brain shrinkage	–
B1	–	reduction of brain development
B2	–	reduction of brain development

From US10272117B2, “Methods of using an activator of cereblon for neural cell expansion and the treatment of central nervous system disorders” (Celgene Corporation, priority 2014, dated 2019)
